Values of other authors as cited in publication PMC4434180.
pKd: −log10 of the molar value.

Biological target: PriL (p58) NTD (Homo sapiens) (UniProt P49643)
Chain of UniProt P49643 (P49643 1-253): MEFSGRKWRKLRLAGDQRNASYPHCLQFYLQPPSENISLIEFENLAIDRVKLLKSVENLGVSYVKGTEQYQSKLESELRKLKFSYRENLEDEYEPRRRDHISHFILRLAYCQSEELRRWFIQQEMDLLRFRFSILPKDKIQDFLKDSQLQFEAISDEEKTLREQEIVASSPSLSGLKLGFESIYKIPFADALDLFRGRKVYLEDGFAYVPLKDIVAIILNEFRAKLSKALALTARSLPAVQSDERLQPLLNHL

For PriS (p49) (from UniProt P49642), the pKd is given as 9.34.
